Results reported in US8470548 (INTRA CELLULAR THERAPIES, dated 2013).

How the values were obtained:
[1] = target: T1, third intracellular loop of the 5-HT6 receptor (amino acids 209-265), bait construct (rat, UniProt P04386 1-147; P31388 209-265); assay: yeast two-hybrid, growth on -LWH medium and X-gal overlay
T1 construct: Yeast two-hybrid bait in the pAS2-derived vector

[2] = target: bait control vector (empty plasmid) (UniProt P04386 1-147); assay: as above
[3] = target: T2, third intracellular loop of the 5-HT1A receptor (amino acids 218-345), bait construct (rat, UniProt P04386 1-147; P19327 218-345); assay: as above
T2 construct: Yeast two-hybrid bait in the pAS2-derived vector

[4] = target: T3, third intracellular loop of the rat 5-HT1B receptor (amino acids 226-311), GAL4 DNA-binding domain fusion … (rat, UniProt P04386 1-147; P28564 226-311); assay: yeast two-hybrid, co-transformation of p11 prey and bait, -LWH medium and X-gal overlay
T3 construct: Yeast two-hybrid bait in a pAS2-derived vector; also called 5-HT1B receptor-bait; 5-HT1B receptors

- binding result [1]: no binding
- binding result [2]: no binding
- binding result [3]: no binding
- binding result [4]: binds
B1: p11 (rat; prey clone from the pACT2 rat brain cDNA library) (other, UniProt P05943 1-95, looked up)
chain: MPSQMEHAMETMMLTFHRFAGEKNYLTKEDLRVLMEREFPGFLENQKDPLAVDKIMKDLDQCRDGKVGFQSFLSLVAGLIIACNDYFVVHMKQKK
notes: Yeast two-hybrid prey; identified by BLAST search of the prey inserts; also called p11 prey; annexin-II light chain; not shown: fusion partner encoded by the pACT2 prey vector
